Experiments:
[1] = target: human C1q (human, UniProt P02745 23-245; P02746 28-253; P02747 29-245); test: C1q binding ELISA, mAb coated at 2.5 µg/ml, human C1q added
[2] = target: T1, Recombinant human FcγRIIIA (human, UniProt P08637 17-208); test: SPR (Biacore), receptor amine-coupled to CM5 chip, mAb flowed, 1:1 fit
T1 construct: also called FcγRIIIA (CD16); CD16

[3] = target: T2, Recombinant human FcγRI (human, UniProt P12314 16-288); test: as above
T2 construct: also called FcγRI (CD64); CD64
T2 sequence (P12314 16-288 limits assumed): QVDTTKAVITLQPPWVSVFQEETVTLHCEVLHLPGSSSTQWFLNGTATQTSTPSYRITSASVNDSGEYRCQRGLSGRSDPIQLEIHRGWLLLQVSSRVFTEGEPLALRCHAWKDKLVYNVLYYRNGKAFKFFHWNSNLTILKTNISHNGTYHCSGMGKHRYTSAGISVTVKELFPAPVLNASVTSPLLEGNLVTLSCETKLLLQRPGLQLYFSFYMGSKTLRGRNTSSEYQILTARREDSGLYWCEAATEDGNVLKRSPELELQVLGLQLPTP

T1 sequence (P08637 17-208 limits assumed): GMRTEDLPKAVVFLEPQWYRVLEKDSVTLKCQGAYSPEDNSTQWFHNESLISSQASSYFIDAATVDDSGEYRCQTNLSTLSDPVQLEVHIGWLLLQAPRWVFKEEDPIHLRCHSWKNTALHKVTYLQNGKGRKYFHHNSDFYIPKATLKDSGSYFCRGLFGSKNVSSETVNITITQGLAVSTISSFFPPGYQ
human C1q, sequence (P02745 23-245 limits assumed, chain 1 of 3): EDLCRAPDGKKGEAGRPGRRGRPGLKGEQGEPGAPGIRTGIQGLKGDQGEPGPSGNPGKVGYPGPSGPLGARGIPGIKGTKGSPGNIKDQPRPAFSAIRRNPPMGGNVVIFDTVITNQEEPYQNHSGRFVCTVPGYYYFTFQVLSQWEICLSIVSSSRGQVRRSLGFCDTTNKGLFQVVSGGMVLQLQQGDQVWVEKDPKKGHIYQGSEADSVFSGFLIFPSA
human C1q, sequence (P02746 28-253 limits assumed, chain 2 of 3): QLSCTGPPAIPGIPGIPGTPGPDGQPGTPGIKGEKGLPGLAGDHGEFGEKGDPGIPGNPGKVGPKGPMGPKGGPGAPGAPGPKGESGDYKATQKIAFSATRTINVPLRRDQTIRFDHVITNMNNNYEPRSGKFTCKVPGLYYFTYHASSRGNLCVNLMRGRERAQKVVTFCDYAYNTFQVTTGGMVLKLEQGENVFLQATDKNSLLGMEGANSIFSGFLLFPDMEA
human C1q, sequence (P02747 29-245 limits assumed, chain 3 of 3): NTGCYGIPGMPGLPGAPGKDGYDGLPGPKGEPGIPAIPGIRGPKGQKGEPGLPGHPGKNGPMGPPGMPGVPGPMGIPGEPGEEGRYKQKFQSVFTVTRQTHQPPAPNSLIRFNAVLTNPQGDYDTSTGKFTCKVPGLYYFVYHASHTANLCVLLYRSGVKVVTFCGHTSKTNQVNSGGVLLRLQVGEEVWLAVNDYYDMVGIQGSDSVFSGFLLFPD

| Binder | Absorbance [1] [absorbance at 450 nm] | Kd [2] [nM] | Kd [3] [nM] |
| --- | --- | --- | --- |
| Anti-Ebola virus produced in -XF plants (antibody) heavy: not shown light: QLVLTQSSSASASLGASVKLTCTLSRQHSTYTIEWYQQQPAKPPRYVMELKKDGSHSTGDGIPDRFSGSSSGADRYLTISSLQSEDEADYYCGVGDTIKEQFVYVFGTGTKVTVLGQPKAAPSVTLFPPSSEELQANKATLVCLISDFYPGAVTVAWKADSSPVKAGVETTTPSKQSNNKYAASSYLSLTPEQWKSHRSYSCQVTHEGSTVEKTVAPTECS | 0.49 | 25 | 16 |
| Anti-Ebola virus produced in wild type plants (antibody) heavy: not shown light: QLVLTQSSSASASLGASVKLTCTLSRQHSTYTIEWYQQQPAKPPRYVMELKKDGSHSTGDGIPDRFSGSSSGADRYLTISSLQSEDEADYYCGVGDTIKEQFVYVFGTGTKVTVLGQPKAAPSVTLFPPSSEELQANKATLVCLISDFYPGAVTVAWKADSSPVKAGVETTTPSKQSNNKYAASSYLSLTPEQWKSHRSYSCQVTHEGSTVEKTVAPTECS | 0.92 | 72 | 42 |
| Anti-Ebola virus produced in -XF +gal plants (antibody) heavy: not shown light: QLVLTQSSSASASLGASVKLTCTLSRQHSTYTIEWYQQQPAKPPRYVMELKKDGSHSTGDGIPDRFSGSSSGADRYLTISSLQSEDEADYYCGVGDTIKEQFVYVFGTGTKVTVLGQPKAAPSVTLFPPSSEELQANKATLVCLISDFYPGAVTVAWKADSSPVKAGVETTTPSKQSNNKYAASSYLSLTPEQWKSHRSYSCQVTHEGSTVEKTVAPTECS | 0.96 | 26 | 15 |
